Data reported in the supplement of paper PMC9233669.
Fewer inactive variants are shown than the library holds.

Key:
[1] = tested on: biotinyl-Val-oxazolone; test: self-aminoacylation, catalytic enhancement (BVO) (fold over background); higher = more active; k-Seq, kA / k0A0; sequences stand for … in GGGAAUGGAUCCACAUCUACGAAUUC…UUCACUGCAGACUUGACGAAGCUG
Outline: (§1)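 Mutagenized RNA pools with a 21-nt variable region (0.43 μM) were reacted with each biotinyl-aminoacyl-oxazolone at 2–1250 μM for 90 minutes at room temperature, in 50 μL HEPES/NaCl/KCl/MgCl2/CaCl2 buffer containing 5% acetonitrile at pH 6.9–7.0. RNA captured on streptavidin was quantified by triplicate qPCR and by Illumina sequencing. The fraction reacted for each sequence was fit to a pseudo-first-order model with bootstrapping, and catalytic enhancement is the median kA divided by the uncatalyzed rate, taken as the low-activity peak of a bimodal Gaussian fit.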

[2] = tested on: biotinyl-Phe-oxazolone; test: self-aminoacylation, catalytic enhancement (BFO) (fold over background); higher = more active; k-Seq, kA / k0A0; sequences stand for … in GGGAAUGGAUCCACAUCUACGAAUUC…UUCACUGCAGACUUGACGAAGCUG
Outline: as §1

[3] = tested on: biotinyl-Ile-oxazolone; test: self-aminoacylation, catalytic enhancement (BIO) (fold over background); higher = more active; k-Seq, kA / k0A0; sequences stand for … in GGGAAUGGAUCCACAUCUACGAAUUC…UUCACUGCAGACUUGACGAAGCUG
Outline: as §1

[4] = tested on: biotinyl-Leu-oxazolone; test: self-aminoacylation, catalytic enhancement (BLO) (fold over background); higher = more active; k-Seq, kA / k0A0; sequences stand for … in GGGAAUGGAUCCACAUCUACGAAUUC…UUCACUGCAGACUUGACGAAGCUG
Outline: as §1

[5] = tested on: biotinyl-Met-oxazolone; test: self-aminoacylation, catalytic enhancement (BMO) (fold over background); higher = more active; k-Seq, kA / k0A0; sequences stand for … in GGGAAUGGAUCCACAUCUACGAAUUC…UUCACUGCAGACUUGACGAAGCUG
Outline: as §1

[6] = tested on: biotinyl-Trp-oxazolone; test: self-aminoacylation, catalytic enhancement (BWO) (fold over background); higher = more active; k-Seq, kA / k0A0; sequences stand for … in GGGAAUGGAUCCACAUCUACGAAUUC…UUCACUGCAGACUUGACGAAGCUG
Outline: as §1

Sequence | self-aminoacylation [1] | self-aminoacylation [2] | self-aminoacylation [3] | self-aminoacylation [4] | self-aminoacylation [5] | self-aminoacylation [6]
AAGUUUGCUAGAAGUCGCAAG [Fam3.1 aminoacylation ribozyme variant] | 0.656 | 0.798 | 0.674 | 0.824 | 0.802 | 1.51
AUUAAACUAGGUCAUCGGGUG [Fam2.2 aminoacylation ribozyme variant] | 3.11 | 23 | 2.89 | 5.02 | 3.79 | 4.43
CUACUUCAGACCAUCGGUCUG [Fam1A.1 aminoacylation ribozyme variant] | 1.07 | 1.06 | 1.1 | 1.14 | 1.25 | 0.856
AUUCACCAAGGUCAUCGCGUG [Fam2.2 aminoacylation ribozyme variant] | 8.42 | 132 | 7.86 | 20.7 | 16 | 12.6
CCACACUUCAUGCAAUCGGUA [Fam1B.1 aminoacylation ribozyme variant] | 0.733 | 0.533 | 0.681 | 0.811 | 0.769 | 0.458
CCACACUUUAAACAAUCGGUC [Fam1B.1 aminoacylation ribozyme variant] | 0.825 | 2.02 | 0.718 | 0.733 | 0.633 | 1.3
GUUCACCUAGGUCAUCGGGUA [Fam2.2 aminoacylation ribozyme variant] | 22.6 | 381 | 24.6 | 68.3 | 50.6 | 33.1
CUAUUUCAAACAAUCGGUCUU [Fam1A.1 aminoacylation ribozyme variant] | 0.827 | 2.72 | 0.864 | 0.792 | 0.878 | 1.57
CUACUUCAAACAAUCGCUCAG [Fam1A.1 aminoacylation ribozyme variant] | 0.689 | 1 | 0.884 | 0.52 | 0.679 | 0.671
AAGUUUGCUAAUAUUCGCAAA [Fam3.1 aminoacylation ribozyme variant] | 1.32 | 0.994 | 1.2 | 1.25 | 1.75 | 2.04
AAGUUUGCUAAUAGUGGUAAG [Fam3.1 aminoacylation ribozyme variant] | 0.801 | 0.868 | 0.992 | 0.788 | 0.769 | 0.724
AAGUUUGCUAAGAGUCGCAAA [Fam3.1 aminoacylation ribozyme variant] | 0.889 | 2.02 | 1.01 | 0.88 | 1.25 | 1.12
AUGUUUGCUAAUUGUCGCAAG [Fam3.1 aminoacylation ribozyme variant] | 1.17 | 1.81 | 1.38 | 1.64 | 1.41 | 2.13
GCACACUUCAAGCAAUCGGCC [Fam1B.1 aminoacylation ribozyme variant] | 3.45 | 4.88 | 3.36 | 3.49 | 2.99 | 6.96
AUUCACCUAGGUCAUCUUGUG [Fam2.2 aminoacylation ribozyme variant] | 1.04 | 1.37 | 0.835 | 1.18 | 1.13 | 0.594
AUUACGGUGGUCAUCGAGUGA [Fam2.1 aminoacylation ribozyme variant] | 2.09 | 5.75 | 2.44 | 2.56 | 2.68 | 3.24
AAGUUUCCUAAUAGUCGCAAG [Fam3.1 aminoacylation ribozyme variant] | 1.36 | 2.47 | 1.57 | 1.42 | 1.34 | 1.62
ACUACCCUGGUCAUCGACUGA [Fam2.1 aminoacylation ribozyme variant] | 0.854 | 3.44 | 0.918 | 0.769 | 1.09 | 0.51
AAGUUCGCUAACAGUCGCAAG [Fam3.1 aminoacylation ribozyme variant] | 1.33 | 2.24 | 1.45 | 1.81 | 1.36 | 1.06
AAUCACCUAGGUCAUCGGGUU [Fam2.2 aminoacylation ribozyme variant] | 3.65 | 11.5 | 4.1 | 6.71 | 5.39 | 5.39
AUUCGCCUAGGUCAUCGGGUG [Fam2.2 aminoacylation ribozyme variant] | 23.1 | 364 | 26.2 | 63.8 | 45.8 | 37.3
CUACAUCAAACAAUCGGUCUG [Fam1A.1 aminoacylation ribozyme variant] | 0.82 | 2.27 | 0.799 | 0.736 | 0.759 | 1.41
AUUACCCUGGUCAUCGAGUAU [Fam2.1 aminoacylation ribozyme variant] | 9.24 | 97.7 | 8 | 23.6 | 26.9 | 24.4
AUUCACCUAGUGCAUCGGGUG [Fam2.2 aminoacylation ribozyme variant] | 1.63 | 5.22 | 1.35 | 2.12 | 1.62 | 1.17
AUUCACGUAGGUAAUCGGGUG [Fam2.2 aminoacylation ribozyme variant] | 3.22 | 23.1 | 2.91 | 5.06 | 3.84 | 4.53
GUAUUUCAAACAAUCGGUCUG [Fam1A.1 aminoacylation ribozyme variant] | 1.04 | 2.64 | 1.1 | 1.02 | 1.09 | 2.34
